Test results as given in PMC5961147 (Nucleic Acids Research, 2018).

Molecular target: the molecule itself
Test: cross-linking

B1: Flag-SART3 (natural protein, UniProt Q15020 1-963, looked up)
chain: MATAAETSASEPEAESKAGPKADGEEDEVKAARTRRKVLSRAVAAATYKTMGPAWDQQEEGVSESDGDEYAMASSAESSPGEYEWEYDEEEEKNQLEIERLEEQLSINVYDYNCHVDLIRLLRLEGELTKVRMARQKMSEIFPLTEELWLEWLHDEISMAQDGLDREHVYDLFEKAVKDYICPNIWLEYGQYSVGGIGQKGGLEKVRSVFERALSSVGLHMTKGLALWEAYREFESAIVEAARLEKVHSLFRRQLAIPLYDMEATFAEYEEWSEDPIPESVIQNYNKALQQLEKYKPYEEALLQAEAPRLAEYQAYIDFEMKIGDPARIQLIFERALVENCLVPDLWIRYSQYLDRQLKVKDLVLSVHNRAIRNCPWTVALWSRYLLAMERHGVDHQVISVTFEKALNAGFIQATDYVEIWQAYLDYLRRRVDFKQDSSKELEELRAAFTRALEYLKQEVEERFNESGDPSCVIMQNWARIEARLCNNMQKARELWDSIMTRGNAKYANMWLEYYNLERAHGDTQHCRKALHRAVQCTSDYPEHVCEVLLTMERTEGSLEDWDIAVQKTETRLARVNEQRMKAAEKEAALVQQEEEKAEQRKRARAEKKALKKKKKIRGPEKRGADEDDEKEWGDDEEEQPSKRRRVENSIPAAGETQNVEVAAGPAGKCAAVDVEPPSKQKEKAASLKRDMPKVLHDSSKDSITVFVSNLPYSMQEPDTKLRPLFEACGEVVQIRPIFSNRGDFRGYCYVEFKEEKSALQALEMDRKSVEGRPMFVSPCVDKSKNPDFKVFRYSTSLEKHKLFISGLPFSCTKEELEEICKAHGTVKDLRLVTNRAGKPKGLAYVEYENESQASQAVMKMDGMTIKENIIKVAISNPPQRKVPEKPETRKAPGGPMLLPQTYGARGKGRTQLSLLPRALQRPSAAAPQAENGPAAAPAVAAPAATEAPKMSNADFAKLFLRK
stoichiometry N: 2
